{"source": "paper PMC6038053", "about": "“Structural and Functional Insights Into Lysostaphin–Substrate Interaction” (Frontiers in Molecular Biosciences, 2018)", "molecules": {"B1": {"name": "GGGGGK hexapeptide (peptide)", "peptide": "GGGGGK", "notes": "also called G5K; source: bought: Sigma-Aldrich"}}, "key": {"[1]": {"biological_target": "T1, lysostaphin CWT domain (Staphylococcus simulans, UniProt P10547)", "T1 construct": "DNA encoding the CWT domain (residues 402-493) was amplified; GST (from the pGEX-2T vector); made in house; host or cells: E. coli BL21 (DE3)", "T1 sequence (P10547 402-493)": "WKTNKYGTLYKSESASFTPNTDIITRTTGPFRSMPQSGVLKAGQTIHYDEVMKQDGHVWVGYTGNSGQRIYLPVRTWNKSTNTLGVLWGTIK", "type": "binding", "method": "The pentaglycine binding site on the CWT domain was determined by comparing the ^1H, ^15N, and ^1H, ^13C HSQC spectra of full-length lysostaphin and CWT domain acquired in the presence and absence of a large amount, ~170 molar excess, of KGGGGG and GGGGGK hexapeptides (Sigma-Aldrich). […] CSPs, calculated as Δδ = (ΔδH^2+(0.154 × ΔδN)^2)^1/2, were plotted as a function of the molar ratio of titrated ligand to CWT domain. Dissociation constants for individual residues were obtained by nonlinear least squares fitting, as implemented in the program xcrvfit (www.bionmr.ualberta.ca/bds/software/xcrvfit). Site-specific dissociation constants were calculated as averages of dissociation constants of individual residues within the site. In all binding site studies protein to zinc concentration ratio was 1:1."}, "[2]": {"conditions": "effect of presence of lysine, relative to pentaglycine"}, "[3]": {"experiment": "Pentaglycine cleavage by lysostaphin monitored by 1H NMR", "type": "biochemical", "conditions": "for Relative activity: PBS pH 7.2, 21 h, 37 °C", "method": "Pentaglycine cleavage by lysostaphin was monitored by ^1H NMR as described previously (Raulinaitis et al., [2017a]). Reactions took place in phosphate buffer saline (PBS), pH 7.2, with >90% D2O by volume as a solvent and final volumes were 600 μL. Initial pentaglycine (Sigma-Aldrich) and lysostaphin concentrations were 1 mM and 2.25 μM, respectively. Metal ions (ZnCl2, CoCl2, CuCl2, and MnCl2) were added as needed. Residual activity of lysostaphin “apo” form was taken into account in activity calculations. Measurements were carried out by using a Bruker Avance III 600 MHz spectrometer, equipped with a QCI ^1H/^13C/^15N/^31P cryoprobe and a SampleJet automated sample changer. The preheater of the sample changer was used for sample incubation when product formation was measured as a time series with 3-h intervals for 48 h. Single time-point samples were incubated in an incubator for 21 h and reactions were quenched by heating at 90°C for 15 min before proton spectra acquisitions at 37°C. The data were processed with Bruker TopSpin 3.5 software.\nProton NMR allows for direct and real-time reaction monitoring devoid of intricacies of cellular suspension (Raulinaitis et al., [2017a]). Scission of pentaglycine by lysostaphin was monitored for 48 h by ^1H NMR and under conditions of this study its catalytic rate appeared to be limited only by saturation with the substrate (Supplementary Figure 4). The substrate turnover rate by the enzyme in the first 3 h of the reaction is estimated to be in the order of 0.006 s^−1.\nFigure 4 Lysostaphin activity dependence on zinc, cobalt, copper and manganese cofactors. Lysostaphin was incubated with pentaglycine (2.25 μM and 1 mM concentrations, respectively) in PBS buffer, pH 7.2, for 21 h at 37°C. Total cofactor ratios to protein were 1:1 and 3:1, EDTA excess was 70-fold. […] Activity was adjusted to one zinc-bound lysostaphin as 100% reference point. Bars represent standard error of the mean (S.E.M) of at least three independent measurements. TEXT PRINTED IN THE PICTURE: 1 Zn: Relative activity, %: 100.0 | 3 Zn: Relative activity, %: 79.8 | 1 Cu: Relative activity, %: 96.4 | 3 Cu: Relative activity, %: 183.3 | 1 Mn: Relative activity, %: 38.8 | 3 Mn: Relative activity, %: 40.3 | 1 Co: Relative activity, %: 79.1 | 100 EDTA: Relative activity, %: 12.8"}, "[4]": {"system": "CWT binding to S. aureus cells", "design": "method as in Gründling and Schneewind, 2006", "conditions": "excess of pentaglycine; ref Gründling and Schneewind, 2006; cited from earlier work"}, "[5]": {"biological_target": "T2, lysostaphin cell wall targeting (CWT) domain (residues 402-493) (Staphylococcus simulans, UniProt P10547 402-493)", "T2 construct": "also called targeting domain; SH3b domain; source: E. coli BL21 (DE3), purified (Glutathione Sepharose, thrombin release, gel filtration on Superdex 75)", "T2 sequence (P10547 402-493)": "as above", "experiment": "NMR titration; 1H,15N and 1H,13C HSQC spectra of the CWT domain with and without ~170 molar excess of hexapeptide; chemical shift perturbations; protein to zinc 1:1", "conditions": "both partners purified"}, "[6]": {"conditions": "~80 molar excess of the peptide, data not shown"}}, "note": "Entries after “also recorded” stand apart in the source; their conditions may differ. Like-named read-outs stand apart in the source and are kept apart here. Non-standard residues stand in square brackets, D forms with d. Residues, ends and D or L forms follow the SMILES beside them."}
{"molecule": "C[C@H](N)C(=O)N[C@H](CCC(=O)O)C(=O)N[C@@H](CCCCN)C(=O)NCC(=O)NCC(=O)NCC(=O)NCC(=O)NCC(=O)N[C@@H](C)C(=O)N[C@H](CCC(=O)O)C(=O)N[C@@H](CCCCN)C(=O)N[C@H](C)C(=O)O", "note": "(H-A[dE]KGGGGGA[dE]K[dA]-OH; N-terminus and C-terminus assumed)", "values": [{"measurement": "CSPs", "setting": "[1]; ~24 molar excess", "result": "significant CSPs"}]}
{"molecule": "GGGGGK [G5K]", "values": [{"measurement": "Largest peak shifts, Δδ (CSP)", "setting": "[1]; residues N405, Y411, G430-F432, V452, M453, Y472, ~170 molar excess", "result": "≥ 0.10", "unit": "ppm"}, {"measurement": "solubility", "setting": "[2]", "result": "significantly enhanced the solubility"}]}
{"molecule": "KGGGGG [KG5]", "values": [{"measurement": "solubility", "setting": "[2]", "result": "significantly enhanced the solubility"}]}
{"molecule": "Lysostaphin: S. simulans zinc-dependent endopeptidase with N-terminal catalytic domain and C-terminal cell wall targeting domain", "values": [{"measurement": "Relative activity", "setting": "[3]; 1 Co (1:1 cofactor to protein), adjusted to one zinc-bound lysostaphin = 100%, 2.25 μM lysostaphin, 1 mM pentaglycine, n ≥ 3", "result": 79.1, "unit": "%"}, {"measurement": "Relative activity", "setting": "[3]; 1 Cu (1:1 cofactor to protein), adjusted to one zinc-bound lysostaphin = 100%, 2.25 μM lysostaphin, 1 mM pentaglycine, n ≥ 3", "result": 96.4, "unit": "%"}, {"measurement": "Relative activity", "setting": "[3]; 1 Mn (1:1 cofactor to protein), adjusted to one zinc-bound lysostaphin = 100%, 2.25 μM lysostaphin, 1 mM pentaglycine, n ≥ 3", "result": 38.8, "unit": "%"}, {"measurement": "Relative activity", "setting": "[3]; 1 Zn (1:1 cofactor to protein), reference point 100%, 2.25 μM lysostaphin, 1 mM pentaglycine, at least three independent measurements", "result": 100.0, "unit": "%"}, {"measurement": "Relative activity", "setting": "[3]; 3 Cu (3:1 cofactor to protein), adjusted to one zinc-bound lysostaphin = 100%, 2.25 μM lysostaphin, 1 mM pentaglycine, n ≥ 3", "result": 183.3, "unit": "%"}, {"measurement": "Relative activity", "setting": "[3]; 3 Mn (3:1 cofactor to protein), adjusted to one zinc-bound lysostaphin = 100%, 2.25 μM lysostaphin, 1 mM pentaglycine, n ≥ 3", "result": 40.3, "unit": "%"}, {"measurement": "Relative activity", "setting": "[3]; 3 Zn (3:1 cofactor to protein), adjusted to one zinc-bound lysostaphin = 100%, 2.25 μM lysostaphin, 1 mM pentaglycine, n ≥ 3", "result": 79.8, "unit": "%"}, {"measurement": "Relative activity", "setting": "[3]; 100 EDTA (EDTA excess, residual activity), adjusted to one zinc-bound lysostaphin = 100%, 2.25 μM lysostaphin, 1 mM pentaglycine, n ≥ 3", "result": 12.8, "unit": "%"}, {"measurement": "change of catalytic activity", "setting": "[3]; Cu^2+ in excess", "result": "activity increases"}, {"measurement": "cofactor suitability for catalytic activity", "setting": "[3]; Mn^2+", "result": "weak cofactor"}, {"measurement": "change of catalytic activity", "setting": "[3]; excess of zinc (second zinc bound by catalytic histidines H329 and H360)", "result": "reduces lysostaphin pentaglycine cleaving activity; also recorded: partial inhibition"}, {"measurement": "substrate turnover rate", "setting": "[3]; first 3 h of the reaction, 1 mM pentaglycine, 2.25 μM lysostaphin, PBS pH 7.2, 37 °C, 1H NMR every 3 h for 48 h, estimated", "result": "~0.006", "unit": "s⁻¹"}, {"measurement": "cofactor suitability for catalytic activity", "setting": "[3]; metal cations Zn^2+, Co^2+, and Cu^2+", "result": "suitable cofactors"}]}
{"molecule": "N-acetylmuramyl-L-alanyl-D-isoglutamine hydrate [N-acetylmuramyl-L-A-D-γ-Q hydrate]", "values": [{"measurement": "CSPs", "setting": "[1]; [6]", "result": "very small CSPs"}, {"measurement": "affinity of CWT domain", "setting": "[1]; [6]", "result": "no significant affinity"}]}
{"molecule": "pentaglycine", "values": [{"measurement": "affinity of targeting (CWT) domain in words", "setting": "[1]; abstract / conclusions summary", "result": "very low affinity; also recorded: extremely low affinity"}, {"measurement": "blocking of CWT binding to S. aureus cells", "setting": "[4]", "result": "cannot be blocked"}]}
{"molecule": "B1", "values": [{"measurement": "Kd", "setting": "[5]", "result": "> 10", "unit": "mM"}]}
